{
  "source": "paper PMC7949130",
  "about": "“Defective binding of SPINK1 variants is an uncommon mechanism for impaired trypsin inhibition in chronic pancreatitis” (The Journal of Biological Chemistry, 2021)",
  "settings_in_all_cases": "both partners purified",
  "key": {"[1]": {"molecular_target": "T1, nonsulfated human anionic trypsin purified from E. coli (human, UniProt P07478 24-247)", "T1 construct": "human anionic trypsin, the active enzyme cut from anionic trypsinogen (Hu2) by enteropeptidase; Not sulfated on Tyr154; also called Hu2 (E. coli); Hu2", "T1 sequence (P07478 24-247)": "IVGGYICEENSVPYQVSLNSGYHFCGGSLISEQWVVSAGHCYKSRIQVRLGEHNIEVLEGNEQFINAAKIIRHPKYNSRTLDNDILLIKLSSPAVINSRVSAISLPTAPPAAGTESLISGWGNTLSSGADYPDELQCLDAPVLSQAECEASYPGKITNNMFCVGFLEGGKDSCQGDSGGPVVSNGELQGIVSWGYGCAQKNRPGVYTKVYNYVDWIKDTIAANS", "assay": "equilibrium binding assay (free trypsin activity on a fluorogenic substrate); fixed trypsin incubated with increasing SPINK1, 0.2 ml, 0.1 M Tris-HCl (pH 8.0), 150 mM NaCl, 1 mM CaCl2, 0.05% Tween 20, 15 h; free trypsin measured with Z-Gly-Pro-Arg-AMC; apparent KD, global fit of at least three experiments"}, "[2]": {"molecular_target": "T2, native sulfated human anionic trypsin purified from pancreatic juice (human, UniProt P07478 24-247, sulfated on Tyr154)", "T2 construct": "human anionic trypsin, the active enzyme cut from anionic trypsinogen by enteropeptidase; also called Hu2-SO4 (native); Hu2-SO4", "T2 sequence (P07478 24-247)": "as above", "assay": "equilibrium binding assay (free trypsin activity on a fluorogenic substrate); fixed trypsin incubated with increasing SPINK1, 0.2 ml, 0.1 M Tris-HCl (pH 8.0), 150 mM NaCl, 1 mM CaCl2, 0.05% Tween 20, 15 h; free trypsin measured with Z-Gly-Pro-Arg-AMC; apparent KD, global fit of at least three experiments"}, "[3]": {"molecular_target": "T1, nonsulfated human anionic trypsin …", "assay": "dissociation rate assay (recovery of trypsin activity after dilution of the complex); complex of 11 nM SPINK1 and 10 nM trypsin formed for 1 h at 23 °C, diluted to 50-200 pM with 0.6 mM Z-Gly-Pro-Arg-AMC, 0.1 M Tris-HCl (pH 8.0), 150 mM NaCl, 1 mM CaCl2, 0.05% Tween 20, room temperature, followed for 1 h"}, "[4]": {"molecular_target": "T2, native sulfated human anionic trypsin …", "assay": "dissociation rate assay (recovery of trypsin activity after dilution of the complex); complex of 11 nM SPINK1 and 10 nM trypsin formed for 1 h at 23 °C, diluted to 50-200 pM with 0.6 mM Z-Gly-Pro-Arg-AMC, 0.1 M Tris-HCl (pH 8.0), 150 mM NaCl, 1 mM CaCl2, 0.05% Tween 20, room temperature, followed for 1 h"}, "[5]": {"molecular_target": "T1, nonsulfated human anionic trypsin …", "assay": "discontinuous association rate assay (residual trypsin activity); 50 pM trypsin mixed with 500 pM SPINK1, 0.1 M Tris-HCl (pH 8.0), 150 mM NaCl, 1 mM CaCl2, 0.05% Tween 20, 23 °C; kon from the pseudo-first-order rate constant divided by the inhibitor concentration"}, "[6]": {"molecular_target": "T2, native sulfated human anionic trypsin …", "assay": "discontinuous association rate assay (residual trypsin activity); 50 pM trypsin mixed with 500 pM SPINK1, 0.1 M Tris-HCl (pH 8.0), 150 mM NaCl, 1 mM CaCl2, 0.05% Tween 20, 23 °C; kon from the pseudo-first-order rate constant divided by the inhibitor concentration"}, "[7]": {"molecular_target": "T3, nonsulfated human anionic trypsin purified from the conditioned medium of transfected HEK 293T cells (human, UniProt P07478 24-247)", "T3 construct": "human anionic trypsin, the active enzyme cut from anionic trypsinogen (Hu2) by enteropeptidase; Sulfation prevented by sodium chlorate; also called Hu2 (HEK 293T); source: HEK 293T, transfected, grown with 50 mM sodium chlorate", "T3 sequence (P07478 24-247)": "as above", "assay": "equilibrium binding assay (free trypsin activity on a fluorogenic substrate); fixed trypsin incubated with increasing SPINK1, 0.2 ml, 0.1 M Tris-HCl (pH 8.0), 150 mM NaCl, 1 mM CaCl2, 0.05% Tween 20, 15 h; free trypsin measured with Z-Gly-Pro-Arg-AMC; apparent KD, global fit of at least three experiments"}, "[8]": {"molecular_target": "T4, sulfated human anionic trypsin purified from the conditioned medium of transfected HEK 293T cells (human, UniProt P07478 24-247, sulfated on Tyr154)", "T4 construct": "human anionic trypsin, the active enzyme cut from anionic trypsinogen (Hu2) by enteropeptidase; also called Hu2-SO4 (HEK 293T); source: HEK 293T, cotransfected with tyrosylprotein sulfotransferase 2", "T4 sequence (P07478 24-247)": "as above", "assay": "equilibrium binding assay (free trypsin activity on a fluorogenic substrate); fixed trypsin incubated with increasing SPINK1, 0.2 ml, 0.1 M Tris-HCl (pH 8.0), 150 mM NaCl, 1 mM CaCl2, 0.05% Tween 20, 15 h; free trypsin measured with Z-Gly-Pro-Arg-AMC; apparent KD, global fit of at least three experiments"}, "[9]": {"molecular_target": "T1, nonsulfated human anionic trypsin …", "assay": "KD calculated from the rate constants (association and dissociation rate assays); KD(calc): equilibrium dissociation constant calculated from kon and koff of the activity-based rate assays"}, "[10]": {"molecular_target": "T2, native sulfated human anionic trypsin …", "assay": "KD calculated from the rate constants (association and dissociation rate assays); KD(calc): equilibrium dissociation constant calculated from kon and koff of the activity-based rate assays"}, "[11]": {"molecular_target": "T2, native sulfated human anionic trypsin …", "assay": "equilibrium binding assay (free trypsin activity on a fluorogenic substrate); fixed trypsin incubated with increasing SPINK1, 0.2 ml, 0.1 M Tris-HCl (pH 8.0), 150 mM NaCl, 1 mM CaCl2, 0.05% Tween 20, 15 h; free trypsin measured with Z-Gly-Pro-Arg-AMC; apparent KD, global fit of at least three experiments", "remark": "listed apart in the source"}, "[12]": {"molecular_target": "T2, native sulfated human anionic trypsin …", "assay": "equilibrium binding assay (free trypsin activity on a fluorogenic substrate); as the equilibrium assay but K41N SPINK1 incubated with trypsin for 1 h; 0.1 M Tris-HCl (pH 8.0), 150 mM NaCl, 1 mM CaCl2, 0.05% Tween 20; apparent KD"}, "[13]": {"molecular_target": "T1, nonsulfated human anionic trypsin …", "assay": "equilibrium binding assay; equilibrium dissociation constant of ecotin on human trypsins, 15 h of incubation; further conditions not told for ecotin"}, "[14]": {"molecular_target": "T2, native sulfated human anionic trypsin …", "assay": "equilibrium binding assay; equilibrium dissociation constant of ecotin on human trypsins, 15 h of incubation; further conditions not told for ecotin"}},
  "data": [
    {"binder": "serine protease inhibitor Kazal type 1 (SPINK1), wildtype, C-terminal 10His tag (natural protein, human, UniProt P00995 24-79, looked up, expressed from the SPINK1-minigene-1 construct with its own signal peptide; Residue numbers start at the initiator methionine; source: HEK 293T, transfected, purified from conditioned medium (nickel-nitrilotriacetic acid cartridge); not shown: 10His, C-terminal, kept) DSLGREAKCYNELNGCTKIYDPVCGTDGNTYPNECVLCFENRKRQTSILIQKSGPC", "values": [
      {"measurement": "Kd", "setting": "[1]", "value": 0.0003, "unit": "nM"},
      {"measurement": "Kd", "setting": "[2]", "value": 0.0367, "unit": "nM"},
      {"measurement": "koff", "setting": "[3]", "value": "5e-07", "unit": "s⁻¹"},
      {"measurement": "koff", "setting": "[4]", "value": "1.81e-05", "unit": "s⁻¹"},
      {"measurement": "kon", "setting": "[5]", "value": "3.8e+06", "unit": "M⁻¹ s⁻¹"},
      {"measurement": "kon", "setting": "[6]", "value": "2.4e+06", "unit": "M⁻¹ s⁻¹"},
      {"measurement": "Kd", "setting": "[7]", "value": 0.0005, "unit": "nM"},
      {"measurement": "Kd", "setting": "[8]", "value": 0.009, "unit": "nM"},
      {"measurement": "Kd", "setting": "[9]", "value": 0.0001, "unit": "nM"},
      {"measurement": "Kd", "setting": "[10]", "value": 0.0075, "unit": "nM"}
    ]},
    {"binder": "SPINK1 variant N37S, C-terminal 10His tag (natural protein, human, UniProt P00995 24-79, looked up, also called SPINK1 N37S; p.N37S; source: HEK 293T, transfected, purified from conditioned medium (nickel-nitrilotriacetic acid cartridge); not shown: 10His, C-terminal, kept) DSLGREAKCYNELSGCTKIYDPVCGTDGNTYPNECVLCFENRKRQTSILIQKSGPC", "values": [
      {"measurement": "Kd", "setting": "[11]", "value": 0.0214, "unit": "nM"}
    ]},
    {"binder": "SPINK1 variant P55S, C-terminal 10His tag (natural protein, human, UniProt P00995 24-79, looked up, also called SPINK1 P55S; p.P55S; source: HEK 293T, transfected, purified from conditioned medium (nickel-nitrilotriacetic acid cartridge); not shown: 10His, C-terminal, kept) DSLGREAKCYNELNGCTKIYDPVCGTDGNTYSNECVLCFENRKRQTSILIQKSGPC", "values": [
      {"measurement": "Kd", "setting": "[11]", "value": 0.123, "unit": "nM"}
    ]},
    {"binder": "SPINK1 variant Q68R, C-terminal 10His tag (natural protein, human, UniProt P00995 24-79, looked up, also called SPINK1 Q68R; p.Q68R; source: HEK 293T, transfected, purified from conditioned medium (nickel-nitrilotriacetic acid cartridge); not shown: 10His, C-terminal, kept) DSLGREAKCYNELNGCTKIYDPVCGTDGNTYPNECVLCFENRKRRTSILIQKSGPC", "values": [
      {"measurement": "Kd", "setting": "[11]", "value": 0.027, "unit": "nM"}
    ]},
    {"binder": "SPINK1 variant I42M, C-terminal 10His tag (natural protein, human, UniProt P00995 24-79, looked up, also called SPINK1 I42M; p.I42M; source: HEK 293T, transfected, purified from conditioned medium (nickel-nitrilotriacetic acid cartridge); not shown: 10His, C-terminal, kept) DSLGREAKCYNELNGCTKMYDPVCGTDGNTYPNECVLCFENRKRQTSILIQKSGPC", "values": [
      {"measurement": "Kd", "setting": "[11]", "value": 0.258, "unit": "nM"}
    ]},
    {"binder": "SPINK1 variant R65Q, C-terminal 10His tag (natural protein, human, UniProt P00995 24-79, looked up, also called SPINK1 R65Q; p.R65Q; source: HEK 293T, transfected, purified from conditioned medium (nickel-nitrilotriacetic acid cartridge); not shown: 10His, C-terminal, kept) DSLGREAKCYNELNGCTKIYDPVCGTDGNTYPNECVLCFENQKRQTSILIQKSGPC", "values": [
      {"measurement": "Kd", "setting": "[11]", "value": 0.006, "unit": "nM"}
    ]},
    {"binder": "SPINK1 variant K41N, C-terminal 10His tag (natural protein, human, UniProt P00995 24-79, looked up, Its concentration was determined by SDS-PAGE and densitometry, not by active site titration; also called SPINK1 K41N; p.K41N; source: HEK 293T, transfected, purified from conditioned medium (nickel-nitrilotriacetic acid cartridge); not shown: 10His, C-terminal, kept) DSLGREAKCYNELNGCTNIYDPVCGTDGNTYPNECVLCFENRKRQTSILIQKSGPC", "values": [
      {"measurement": "Kd", "setting": "[12]", "value": 1150, "unit": "nM"}
    ]},
    {"binder": "SPINK1 variant N34S, C-terminal 10His tag (natural protein, human, UniProt P00995 24-79, looked up, also called SPINK1 N34S; p.N34S; source: HEK 293T, transfected, purified from conditioned medium (nickel-nitrilotriacetic acid cartridge); not shown: 10His, C-terminal, kept) DSLGREAKCYSELNGCTKIYDPVCGTDGNTYPNECVLCFENRKRQTSILIQKSGPC", "values": [
      {"measurement": "Kd", "setting": "[1]", "value": 0.0004, "unit": "nM"},
      {"measurement": "Kd", "setting": "[2]", "value": 0.0167, "unit": "nM"},
      {"measurement": "koff", "setting": "[3]", "value": "4e-07", "unit": "s⁻¹"},
      {"measurement": "koff", "setting": "[4]", "value": "1.36e-05", "unit": "s⁻¹"},
      {"measurement": "kon", "setting": "[5]", "value": "5.1e+06", "unit": "M⁻¹ s⁻¹"},
      {"measurement": "kon", "setting": "[6]", "value": "3.1e+06", "unit": "M⁻¹ s⁻¹"},
      {"measurement": "Kd", "setting": "[7]", "value": 0.0008, "unit": "nM"},
      {"measurement": "Kd", "setting": "[8]", "value": 0.0063, "unit": "nM"},
      {"measurement": "Kd", "setting": "[9]", "value": 0.0001, "unit": "nM"},
      {"measurement": "Kd", "setting": "[10]", "value": 0.0044, "unit": "nM"}
    ]},
    {"binder": "ecotin (natural protein, source: E. coli BL21(DE3), overexpressed, purified from the periplasm) not shown", "values": [
      {"measurement": "Kd", "setting": "[13]", "value": 0.0032, "unit": "nM"},
      {"measurement": "Kd", "setting": "[14]", "value": 0.0195, "unit": "nM"}
    ]}
  ]
}
